Numbered stars: 1 amine (or outer) side, 2 acyl side, 3 side chain; on linkers, the order of the positions; unused ones are H or OH. Bridge positions count the residues as written; N and C are the ends. Side chains are listed from the residue outwards. Ends that are not written are not given here. * marks the point of attachment. C20 diacid = O=C(O)CCCCCCCCCCCCCCCCCCC(=O)*; γGlu = O=C(O)[C@H](CCC(=O)[*:2])N[*:1]
T1: human calcitonin receptor (human, UniProt P30988 25-474)
T1 sequence (looked up): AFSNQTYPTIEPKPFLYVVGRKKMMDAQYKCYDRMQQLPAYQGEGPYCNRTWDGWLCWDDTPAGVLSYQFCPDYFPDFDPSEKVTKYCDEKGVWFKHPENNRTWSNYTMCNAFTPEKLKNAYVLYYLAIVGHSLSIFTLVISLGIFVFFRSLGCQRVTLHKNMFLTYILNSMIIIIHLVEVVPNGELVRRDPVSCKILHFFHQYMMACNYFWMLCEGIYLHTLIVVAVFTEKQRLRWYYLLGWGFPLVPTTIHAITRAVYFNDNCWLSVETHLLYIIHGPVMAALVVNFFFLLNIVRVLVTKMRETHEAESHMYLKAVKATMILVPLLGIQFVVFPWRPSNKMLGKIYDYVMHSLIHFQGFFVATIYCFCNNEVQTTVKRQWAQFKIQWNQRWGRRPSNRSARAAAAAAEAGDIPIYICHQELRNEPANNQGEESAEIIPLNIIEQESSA

T2: human amylin receptor (Amylin 3(a) receptor: human calcitonin receptor co-expressed with RAMP-3) (human, UniProt P30988 25-474; O60896 24-148, limits assumed)
T2 construct: whole, on cells; Used as cell membranes prepared from the Amylin 3(a)/CRE-luc BHK cells (Assay V); the complex is called the human amylin receptor; also called hAmylin-R; hAmylinR
T2 sequence (looked up) 1: T1 sequence (looked up)
T2 sequence (looked up) 2: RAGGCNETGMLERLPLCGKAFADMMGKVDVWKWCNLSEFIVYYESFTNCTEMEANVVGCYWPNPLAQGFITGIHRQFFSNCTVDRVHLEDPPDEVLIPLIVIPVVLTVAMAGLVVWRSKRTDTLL

B1: N{-1}-[(4S)-4-carboxy-4-(19-carboxynonadecanoylamino)butanoyl]-Gly[Arg1,His14,Arg17,Pro21,Pro27]-h-amylin (peptide)
peptide: {C20 diacid-γGlu}-GRCNTATCATQRLAHFLRHSSPNFGAIPSSTNVGSNTY-NH2
modifications: disulfide 3-8
SMILES: CC[C@H](C)[C@H](NC(=O)[C@H](C)NC(=O)CNC(=O)[C@H](Cc1ccccc1)NC(=O)[C@H](CC(N)=O)NC(=O)[C@@H]1CCCN1C(=O)[C@H](CO)NC(=O)[C@H](CO)NC(=O)[C@H](Cc1c[nH]cn1)NC(=O)[C@H](CCCNC(=N)N)NC(=O)[C@H](CC(C)C)NC(=O)[C@H](Cc1ccccc1)NC(=O)[C@H](Cc1c[nH]cn1)NC(=O)[C@H](C)NC(=O)[C@H](CC(C)C)NC(=O)[C@H](CCCNC(=N)N)NC(=O)[C@H](CCC(N)=O)NC(=O)[C@@H](NC(=O)[C@H](C)NC(=O)[C@@H]1CSSC[C@H](NC(=O)[C@H](CCCNC(=N)N)NC(=O)CNC(=O)CC[C@H](NC(=O)CCCCCCCCCCCCCCCCCCC(=O)O)C(=O)O)C(=O)N[C@@H](CC(N)=O)C(=O)N[C@@H]([C@@H](C)O)C(=O)N[C@@H](C)C(=O)N[C@@H]([C@@H](C)O)C(=O)N1)[C@@H](C)O)C(=O)N1CCC[C@H]1C(=O)N[C@@H](CO)C(=O)N[C@@H](CO)C(=O)N[C@H](C(=O)N[C@@H](CC(N)=O)C(=O)N[C@H](C(=O)NCC(=O)N[C@@H](CO)C(=O)N[C@@H](CC(N)=O)C(=O)N[C@H](C(=O)N[C@@H](Cc1ccc(O)cc1)C(N)=O)[C@@H](C)O)C(C)C)[C@@H](C)O
notes: N-terminal extension by Gly; synthetic peptide amide; also called compound 99
B2: N^-1-[(4S)-4-carboxy-4-(19-carboxynonadecanoylamino)butanoyl]-Gly[Arg1,His14,Arg17,Pro21,Pro27,His34]-h-amylin (peptide)
peptide: {C20 diacid-γGlu}-GRCNTATCATQRLAHFLRHSSPNFGAIPSSTNVGHNTY-NH2
modifications: disulfide 3-8
SMILES: CC[C@H](C)[C@H](NC(=O)[C@H](C)NC(=O)CNC(=O)[C@H](Cc1ccccc1)NC(=O)[C@H](CC(N)=O)NC(=O)[C@@H]1CCCN1C(=O)[C@H](CO)NC(=O)[C@H](CO)NC(=O)[C@H](Cc1c[nH]cn1)NC(=O)[C@H](CCCNC(=N)N)NC(=O)[C@H](CC(C)C)NC(=O)[C@H](Cc1ccccc1)NC(=O)[C@H](Cc1c[nH]cn1)NC(=O)[C@H](C)NC(=O)[C@H](CC(C)C)NC(=O)[C@H](CCCNC(=N)N)NC(=O)[C@H](CCC(N)=O)NC(=O)[C@@H](NC(=O)[C@H](C)NC(=O)[C@@H]1CSSC[C@H](NC(=O)[C@H](CCCNC(=N)N)NC(=O)CNC(=O)CC[C@H](NC(=O)CCCCCCCCCCCCCCCCCCC(=O)O)C(=O)O)C(=O)N[C@@H](CC(N)=O)C(=O)N[C@@H]([C@@H](C)O)C(=O)N[C@@H](C)C(=O)N[C@@H]([C@@H](C)O)C(=O)N1)[C@@H](C)O)C(=O)N1CCC[C@H]1C(=O)N[C@@H](CO)C(=O)N[C@@H](CO)C(=O)N[C@H](C(=O)N[C@@H](CC(N)=O)C(=O)N[C@H](C(=O)NCC(=O)N[C@@H](Cc1c[nH]cn1)C(=O)N[C@@H](CC(N)=O)C(=O)N[C@H](C(=O)N[C@@H](Cc1ccc(O)cc1)C(N)=O)[C@@H](C)O)C(C)C)[C@@H](C)O
notes: N-terminal extension by Gly; synthetic peptide amide; also called compound 100
B3: N^ε1-[(4S)-4-carboxy-4-(19-carboxynonadecanoylamino)butanoyl]-[Glu14,Arg17,Pro21,Pro27,Pro34,Glu35]-h-amylin (peptide)
peptide: K([γGlu-C20 diacid])CNTATCATQRLAEFLRHSSPNFGAIPSSTNVGPETY-NH2
modifications: disulfide 2-7; N-terminus assumed
SMILES: CC[C@H](C)[C@H](NC(=O)[C@H](C)NC(=O)CNC(=O)[C@H](Cc1ccccc1)NC(=O)[C@H](CC(N)=O)NC(=O)[C@@H]1CCCN1C(=O)[C@H](CO)NC(=O)[C@H](CO)NC(=O)[C@H](Cc1c[nH]cn1)NC(=O)[C@H](CCCNC(=N)N)NC(=O)[C@H](CC(C)C)NC(=O)[C@H](Cc1ccccc1)NC(=O)[C@H](CCC(=O)O)NC(=O)[C@H](C)NC(=O)[C@H](CC(C)C)NC(=O)[C@H](CCCNC(=N)N)NC(=O)[C@H](CCC(N)=O)NC(=O)[C@@H](NC(=O)[C@H](C)NC(=O)[C@@H]1CSSC[C@H](NC(=O)[C@@H](N)CCCCNC(=O)CC[C@H](NC(=O)CCCCCCCCCCCCCCCCCCC(=O)O)C(=O)O)C(=O)N[C@@H](CC(N)=O)C(=O)N[C@@H]([C@@H](C)O)C(=O)N[C@@H](C)C(=O)N[C@@H]([C@@H](C)O)C(=O)N1)[C@@H](C)O)C(=O)N1CCC[C@H]1C(=O)N[C@@H](CO)C(=O)N[C@@H](CO)C(=O)N[C@H](C(=O)N[C@@H](CC(N)=O)C(=O)N[C@H](C(=O)NCC(=O)N1CCC[C@H]1C(=O)N[C@@H](CCC(=O)O)C(=O)N[C@H](C(=O)N[C@@H](Cc1ccc(O)cc1)C(N)=O)[C@@H](C)O)C(C)C)[C@@H](C)O
notes: synthetic peptide amide
B4: N^-1-[(4S)-4-carboxy-4-(19-carboxynonadecanoylamino)butanoyl]-Gly[Arg1,His14,Arg17,Pro21,Pro27,His34]-h-amylin (peptide)
peptide: {C20 diacid-γGlu}-GRCNTATCATQRLAHFLRHSSPNFGAIPSSTNVGHNTY-NH2
modifications: disulfide 3-8
SMILES: CC[C@H](C)[C@H](NC(=O)[C@H](C)NC(=O)CNC(=O)[C@H](Cc1ccccc1)NC(=O)[C@H](CC(N)=O)NC(=O)[C@@H]1CCCN1C(=O)[C@H](CO)NC(=O)[C@H](CO)NC(=O)[C@H](Cc1c[nH]cn1)NC(=O)[C@H](CCCNC(=N)N)NC(=O)[C@H](CC(C)C)NC(=O)[C@H](Cc1ccccc1)NC(=O)[C@H](Cc1c[nH]cn1)NC(=O)[C@H](C)NC(=O)[C@H](CC(C)C)NC(=O)[C@H](CCCNC(=N)N)NC(=O)[C@H](CCC(N)=O)NC(=O)[C@@H](NC(=O)[C@H](C)NC(=O)[C@@H]1CSSC[C@H](NC(=O)[C@H](CCCNC(=N)N)NC(=O)CNC(=O)CC[C@H](NC(=O)CCCCCCCCCCCCCCCCCCC(=O)O)C(=O)O)C(=O)N[C@@H](CC(N)=O)C(=O)N[C@@H]([C@@H](C)O)C(=O)N[C@@H](C)C(=O)N[C@@H]([C@@H](C)O)C(=O)N1)[C@@H](C)O)C(=O)N1CCC[C@H]1C(=O)N[C@@H](CO)C(=O)N[C@@H](CO)C(=O)N[C@H](C(=O)N[C@@H](CC(N)=O)C(=O)N[C@H](C(=O)NCC(=O)N[C@@H](Cc1c[nH]cn1)C(=O)N[C@@H](CC(N)=O)C(=O)N[C@H](C(=O)N[C@@H](Cc1ccc(O)cc1)C(N)=O)[C@@H](C)O)C(C)C)[C@@H](C)O
notes: modifications are with respect to human amylin; also called compound 100
B5: N{-1}-[(4S)-4-carboxy-4-(19-carboxynonadecanoylamino)butanoyl]-Gly[Arg1,His14,Arg17,Pro21,Pro27]-h-amylin (peptide)
peptide: {C20 diacid-γGlu}-GRCNTATCATQRLAHFLRHSSPNFGAIPSSTNVGSNTY-NH2
modifications: disulfide 3-8
SMILES: CC[C@H](C)[C@H](NC(=O)[C@H](C)NC(=O)CNC(=O)[C@H](Cc1ccccc1)NC(=O)[C@H](CC(N)=O)NC(=O)[C@@H]1CCCN1C(=O)[C@H](CO)NC(=O)[C@H](CO)NC(=O)[C@H](Cc1c[nH]cn1)NC(=O)[C@H](CCCNC(=N)N)NC(=O)[C@H](CC(C)C)NC(=O)[C@H](Cc1ccccc1)NC(=O)[C@H](Cc1c[nH]cn1)NC(=O)[C@H](C)NC(=O)[C@H](CC(C)C)NC(=O)[C@H](CCCNC(=N)N)NC(=O)[C@H](CCC(N)=O)NC(=O)[C@@H](NC(=O)[C@H](C)NC(=O)[C@@H]1CSSC[C@H](NC(=O)[C@H](CCCNC(=N)N)NC(=O)CNC(=O)CC[C@H](NC(=O)CCCCCCCCCCCCCCCCCCC(=O)O)C(=O)O)C(=O)N[C@@H](CC(N)=O)C(=O)N[C@@H]([C@@H](C)O)C(=O)N[C@@H](C)C(=O)N[C@@H]([C@@H](C)O)C(=O)N1)[C@@H](C)O)C(=O)N1CCC[C@H]1C(=O)N[C@@H](CO)C(=O)N[C@@H](CO)C(=O)N[C@H](C(=O)N[C@@H](CC(N)=O)C(=O)N[C@H](C(=O)NCC(=O)N[C@@H](CO)C(=O)N[C@@H](CC(N)=O)C(=O)N[C@H](C(=O)N[C@@H](Cc1ccc(O)cc1)C(N)=O)[C@@H](C)O)C(C)C)[C@@H](C)O
notes: modifications are with respect to human amylin; also called compound 99
B6: N^ε1-[(4S)-4-carboxy-4-[[(4S)-4-carboxy-4-(19-carboxynonadecanoylamino)butanoyl]amino]butanoyl]-[Glu14,Arg17,Pro21,Pro27,Pro34,Glu35]-h-amylin (peptide)
peptide: K([γGlu-γGlu-C20 diacid])CNTATCATQRLAEFLRHSSPNFGAIPSSTNVGPETY-NH2
modifications: disulfide 2-7 (inferred)
notes: modifications are with respect to human amylin

Target: T1, human calcitonin receptor
Test: cell-based or functional assay

Binder | hCTR funct. EC50 (pM)
B1 | 818
B2 | 1730
B3 | 841

Target: T2, human amylin receptor (Amylin 3(a) …)
Test: SPA competition binding, displacement of 125I-rat amylin from membranes of BHK cells with human calcitonin receptor + RAMP-3 (Assay V)
Procedure: The binding assay was performed using scintillation proximity assay (SPA) beads (RPNQ0001) from PerkinElmer and cell membranes from the Amylin 3(a)/CRE-luc cells (as described in Assay (II)) were used. Membranes were prepared in the following way; the cells were rinsed with PBS and incubated with Versene for approximately 5 min before harvesting. The cells were flushed with PBS and the cell-suspension was centrifuged for 5 min at 1000 rpm. Cells were homogenized (ultrathurrax) in a buffer containing 20 mM Na-HEPES and 10 mM EDTA (pH 7.4) and centrifuged at 20.000 rpm for 15 min. The resulting pellet was resuspended, homogenized and centrifuged (20.000 rpm, 15 min) in a buffer containing 20 mM Na-HEPES and 0.1 mM EDTA (pH 7.4, buffer 2). The resulting pellet was resuspended in buffer 2 and protein concentration was measured (BCA protein Assay, Pierce). The homogenate was kept cold during the whole procedure. The membranes were kept at −80° C. until use. The assay was performed in a 384 well Optiplate (PerkinElmer) in a total volume of 40 ul. Membranes were mixed with SPA beads. Final concentration of membranes 35 ng/μL final and SPA beads was 0.05 mg/well. Test-compounds were dissolved in DMSO and further diluted in assay buffer (50 mM Hepes, pH 7.4, 1 mM CaCl2, 5 mM MgCl₂, 0.1% OA and 0.02% Tween20). […] The final mixture was incubated with shaking at 400 rpm for 120 min at 25° C. prior to centrifugation (1500 rpm, 10 min). Samples were analyzed on TopCounter™ (Packard). The IC₅₀ was calculated using (one site binding competition analysis) GraphPad Prism5 as a measure of receptor affinity.

Binder | IC50 [nM]
B4 | 1.01
B5 | 0.348
B6 | 0.121

Source: patent US20140087995A1 (published 2014)
